Laboratory results reported in patent publication US20080311122A1, “Antagonists of Hmgb1 and/or Rage and Methods of Use Thereof” (Medimmune, LLC, priority 2005, published 2008).

Key:
[1] = system: HMG1 (recombinant, native; immobilized, soluble); experiment: Direct and sandwich (capture) ELISA comparing forms of HMG1; type: binding; settings: two ELISA formats, rHMG1
Method: Direct ELISA (immobilized HMG1): Individual wells of a 96-well immunoplate (EIA/RIA plate, High binding, Costar) were coated with HMGB-1 at 5 μg/ml in PBS at 4° C. overnight. The plate was then blocked with 4% milk powder dissolved in PBS at 37° C. for 1 hour. The blocking solution was removed and replaced with human anti-HMG1 antibodies at various concentrations (see FIG. 4A). The plate was then washed (ELX-405 Plate washer, BIO-TEK) and secondary antibody (anti-human IgG-HRP, PIERCE) was added at a final concentration of 1:125,000 at 37° C. for 1 hour. HRP activity was detected with Sureblue HRP substrate (KPL). Plates were read at 450 nm using a Kinetic Microplate Reader (Molecular Devices).
Sandwich ELISA (soluble HMG1): Immunoplates (EIA/RIA plate, High binding, Costar) were coated with anti human IgG Fc at 10 μg/ml in PBS (pH 7.2) and incubated at 4° C. overnight. The coating reagent was removed and the plates were rinsed briefly with PBS. The plates were then blocked with 4% milk for 1 hour at 37° C. and rinsed with PBS. The anti-HMG1 antibodies were diluted in 4% milk. For serial dilutions, the antibodies were used at a starting concentration of 20 μg/ml. The diluted anti-HMG1 antibodies were then added into plate and incubated for 1 hr at 37° C. The plate was then washed 10 times with PBST (PBS/0.1% tween 20) and incubate with antigen (HMGB1, 2 μg/ml; or 0.7 μg/ml for native HMGB1) in 4% milk and incubated at 37° C. for 1 h. The plate was then wash 10 times and incubated with mouse anti-HMGB1, 1 μg/ml in 4% milk at 37° C. for 1 h. The plate was washed 10 times and incubated with anti-mouse IgG-HRP at 1:1000 at 37° C. for 1 h. The plate was then washed and developed. HRP activity was detected with Sureblue HRP substrate (KPL). Plates were read at 450 nm using a Kinetic Microplate Reader (Molecular Devices).

[2] = Isoelectric focusing gel electrophoresis; type: physicochemical
Method: Isoelectric Focusing Gel Electrophoresis: Isoelectric points were determined using a Pharmacia Biotech Multiphor 2 electrophoresis system with a multi temp 3 refrigerated bath recirculation unit and an EPS 3501 XL power supply. Pre-cast ampholine gels (Amersham Biosciences, pI range 2.5-10) were loaded with 5 μg of protein. Broad range pI marker standards (Amersham, pI range 3-10, 8 μL) were used to determine relative pI for the Mabs. Electrophoresis was performed at 1500 V, 50 mA for 105 minutes. The gel was fixed using a Sigma fixing solution (5×) diluted with purified water to 1×. Staining was performed overnight at room temperature using Simply Blue stain (Invitrogen). Destaining was carried out with a solution that consisted of 25% ethanol, 8% acetic acid and 67% purified water. Isoelectric points were determined using a Bio-Rad Densitometer relative to calibration curves of the standards.

[3] = target: T1, HMG2 (Bos taurus, UniProt P40673); experiment: Binding to HMG1 vs. HMG2 ELISA; design: species or system calf; settings: immobilized antigen
T1 construct: from tissue; host or cells: calf thymus (as read from the sentence)
T1 sequence (P40673 1-209): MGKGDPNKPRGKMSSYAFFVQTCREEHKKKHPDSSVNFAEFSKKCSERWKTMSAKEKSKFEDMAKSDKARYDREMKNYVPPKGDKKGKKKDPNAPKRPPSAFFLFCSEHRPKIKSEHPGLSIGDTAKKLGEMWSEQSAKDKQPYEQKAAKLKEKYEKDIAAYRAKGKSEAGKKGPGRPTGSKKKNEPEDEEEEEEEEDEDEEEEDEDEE
Method: Binding to HMG1 vs. HMG2: Ultra high-binding ELISA plates (ThermoLab systems, #3855) were coated with either 5 ug/mL of Calf thymus HMGB1 or HMBG2 diluted in 10 mM Phosphate buffered saline (PBS), pH 7.2 and incubate overnight at 4 degrees. The plates were washed twice with Ca and Mg free PBS and 100 microliters of anti-HMGB1 antibody diluted in 10 mM PBS, pH 7.2+1% bovine serum albumin (BSA) to a final concentration of 10 ug/mL was added to each well and the plates were incubated 1 hour at room temperature. The wells were washed three times with 100 μl of PBS, pH 7.2. HRP labeled goat-anti-human IgG Kappa-chain (KPL, #14-10-10) and goat-anti-human IgG Lambda-chain (KPL, #14-10-11) were diluted in 10 mM PBS+1% BSA 1:1000 and 100 μl were added to each well and incubated for 1 hour at room temperature. The wells were then washed three times with 100 μl of PBS, pH 7.2. OPD substrate (Pierce chemical company, #34006) was prepared following the manufacturers instructions and 100 μl of prepared substrate was added to each well and the plates incubated at room temperature in the dark for 20-30 minutes. The reaction was stopped with the addition of 100 μl of 2M H2SO4, and the plates read on a plate reader at a wavelength of 490 nm.

[4] = target: T2, recombinant HMG1 binding to RAGE-Fc (Homo sapiens, UniProt P09429); experiment: HMG1 binding to RAGE-Ig by ELISA; settings: at the concentrations tested
T2 construct: made in house; host or cells: E. coli (HMG1)
T2 sequence (P09429 1-215): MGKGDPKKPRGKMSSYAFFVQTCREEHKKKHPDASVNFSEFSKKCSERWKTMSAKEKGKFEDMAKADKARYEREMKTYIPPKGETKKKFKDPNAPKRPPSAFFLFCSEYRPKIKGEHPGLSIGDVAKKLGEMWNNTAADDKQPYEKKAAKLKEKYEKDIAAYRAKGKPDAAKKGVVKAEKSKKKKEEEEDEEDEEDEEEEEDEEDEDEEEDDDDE
Method: HMG1 binding to RAGE-Ig by ELISA: 50 μl/well of RAGE-Fc fusion protein at 5 μg/ml in PBS was added to each well of an ELISA plate and incubated overnight at 4° C. The plate was then blocked with 200 μl of 5% milk at 37° C. for 1 hr and washed 3× with PBS/Tween. 50 μl/well of diluted HMGB1 solution. For dose curves, HMGB1 concentrations started at 4 ug/ml in PBS. For antibody blocking the HMGB1 was preincubated in another plate with human anti-HMG1 antibodies or buffer, then transferred to the RAGE-coated plate. The plates were then incubated at room temperature for 2 hours and washed 3×. To detect any HMG1 bound to the immobilized RAGE-Fc a mixture of biotinylated mouse anti-HMG1 mAbs (10D4, 4H11, 3E10 and 5C12) each at 1 ug/ml, total Ab: 4 ug/ml, were added to each well and the plate was incubated for 1 hour at room temperature. The plate was then washed and Strepavidin-HPR was added to each well and incubated 15 min. The plate was then washed 3× and blotted dry. 100 μl of TMB developing agent was added and the plate read at 650 nm. Values were calculated as percent of inhibition with HMG1 alone equal to 0% inhibition. The data in FIG. 9 and summarized in Table 1 represent the average of two separate experiments.

B1: S17: human anti-HMG1 antibody; VL/VH aa SEQ ID NO: 70/72 (antibody, listed as Homo sapiens, V domains shown)
VH: EVQLLESGGGLVQPGGSLRLSCAASGFTFSYYDMHWVRQAPGKGLEWVSRISPSGGYTWYADSVKGRFTISRDNSKNTLYLQMNSLRAEDTAVYYCTRGRYTSGWHEYFDPWGQGTLVTVSS
VL: AQDIQMTQSPSSLSASVGDRVTITCRASQSIGTYLNWYQQKPGTAPKVLIYAASSLQSGVPSRFSGSGSGTDFTLTISSLQPEDFSTYYCQQSYNTPRTFGQGTKLEIK
binding to immobilized versus soluble HMG1 [1]: to a lesser extent S17 have a higher affinity for soluble HMG1 | PI [2]: 8.7 | relative binding to HMG1 and HMG2 [3]: specific for HMG1 | block of recombinant HMG1 binding to RAGE [4]: do not at the concentrations tested

B2: G2: human anti-HMG1 IgG1 from Fab phage display library; VL/VH aa SEQ ID NO: 30/32 (antibody, listed as Homo sapiens, V domains shown)
VH: EVQLLESGGGLVQPGGSLRLSCAASGFTFSWYKMQWVRQAPGKGLEWVSGISPSGGSTAYADSVKGRFTISRDNSKNTLYLQMNSLRAEDTAVYYCAKMGLFNTGNSYVDYWGQGTLVTVSS
VL: AQSELTQPPSVSEAPGQRVTISCSGSTSNIGNNAVIWYQQLPGKAPKLLIYYDDLLPSGVSDRFSGSKSGTSGSLAISGLQSEDEADYYCASWDDNLNGPLFGGGTKLTVL
binding to immobilized versus soluble HMG1 [1]: little difference in binding to immobilized or soluble HMG1 | PI [2]: 7.78 | relative binding to HMG1 and HMG2 [3]: specific for HMG1 | block of recombinant HMG1 binding to RAGE [4]: significant ability to block the binding of HMG1 to RAGE
